Biological target: asf1a_human ASF1A (UniProt Q9Y294)
Sequence (Q9Y294 whole entry): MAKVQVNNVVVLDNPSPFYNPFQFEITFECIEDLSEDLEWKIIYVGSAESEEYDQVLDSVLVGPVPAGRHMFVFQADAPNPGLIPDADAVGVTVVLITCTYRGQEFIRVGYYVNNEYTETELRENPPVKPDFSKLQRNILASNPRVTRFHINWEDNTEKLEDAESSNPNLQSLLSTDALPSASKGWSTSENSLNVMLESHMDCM

Q: With “Chromatin assembly factor 1 subunit B (Homo sapiens) (from UniProt Q13112) R483A;R499A” as the substance, how does the “effect of a mutation on the interaction” value read?
A: The value was “disrupting interaction”.
